Measured values published in patent US20210284709A1 (JUNO THERAPEUTICS, published 2021).

What follows are binders tested against T1, HLA-A2/E7(11-19) tetramer (human; HPV 16) (assay: flow cytometry, tetramer + anti-CD8; transfected mix of CD8- and CD8+ Jurkat-derived cells;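 further: cells transiently transfected with TCR-encoding plasmids, analysed 48 h afterwards by co-staining with HLA-A*02:01 peptide tetramer and anti-CD8 antibody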).
T1 construct: also called E7(11-19) peptide-MHC tetramer; E7 tet
Method: For transfection, the CD4+ and CD4+/CD8+ cell mixtures were transiently transfected with TCR-encoding plasmids and 48 hours after transfection, cells were assessed by flow cytometry for (1) binding of the target peptide in the context of an MHC molecule (HLA:A02:01) by staining with an E6(29-38) peptide- or an E7(11-19) peptide-MHC tetramer reagent, and/or (2) CD8+ independent binding of the target by co-staining the tetramer-labeled cells with an anti-CD8 antibody.

Binder	% cells E7 tet+/CD8+ quadrant [%]	% cells E7 tet+/CD8- quadrant [%]
TCR 35 (codon-optimized, cysteine-modified) (TCR, V domains shown) V domain 1: KDQVFQPSTVASSEGAVVEIFCNHSVSNAYNFFWYLHFPGCAPRLLVKGSKPSQQGRYNMTYERFSSSLLILQVREADAAVYYCAVAGDYKLSFGAGTTVTVRA V domain 2: DSGVTQTPKHLITATGQRVTLRCSPRSGDLSVYWYQQSLDQGLQFLIQYYNGEERAKGNILERFSAQQFPDLHSELNLSSLELGDSALYFCASTTSGDSSYNEQFFGPGTRLTVLE	14.5	7.18
TCR 34 (codon-optimized, cysteine-modified) (TCR, V domains shown) V domain 1: ELKVEQNPLFLSMQEGKNYTIYCNYSTTSDRLYWYRQDPGKSLESLFVLLSNGAVKQEGRLMASLDTKARLSTLHITAAVHDLSATYFCAVSGTYKYIFGTGTRLKVLA V domain 2: ETGVTQSPTHLIKTRGQQVTLRCSSQSGHNTVSWYQQALGQGPQFIFQYYREEENGRGNFPPRFSGLQFPNYSSELNVNALELDDSALYLCASSSYAGSYEQYFGPGTRLTVTE	26.3	26
TCR 43 (codon-optimized, cysteine-modified) (TCR, V domains shown) V domain 1: QKEVEQNSGPLSVPEGAIASLNCTYSDRGSQSFFWYRQYSGKSPELIMFIYSNGDKEDGRFTAQLNKASQYVSLLIRDSQPSDSATYLCAVNVPTSGTYKYIFGTGTRLKVLA V domain 2: EPEVTQTPSHQVTQMGQEVILRCVPISNHLYFYWYRQILGQKVEFLVSFYNNEISEKSEIFDDQFSVERPDGSNFTLKIRSTKLEDSAMYFCASTPRDSYEQYFGPGTRLTVTE	3.82	1.88
TCR 40 (codon-optimized, cysteine-modified) (TCR, V domains shown) V domain 1: GQQVMQIPQYQHVQEGEDFTTYCNSSTTLSNIQWYKQRPGGHPVFLIQLVKSGEVKKQKRLTFQFGEAKKNSSLHITATQTTDVGTYFCAGRNNFNKFYFGSGTKLNVKP V domain 2: EPEVTQTPSHQVTQMGQEVILRCVPISNHLYFYWYRQILGQKVEFLVSFYNNEISEKSEIFDDQFSVERPDGSNFTLKIRSTKLEDSAMYFCAITARSSYEQYFGPGTRLTVTE	7.84	1.37
TCR 36 (codon-optimized, cysteine-modified) (TCR, V domains shown) V domain 1: RKEVEQDPGPFNVPEGATVAFNCTYSNSASQSFFWYRQDCRKEPKLLMSVYSSGNEDGRFTAQLNRASQYISLLIRDSKLSDSATYLCVVNRDNYGQNFVFGPGTRLSVLP V domain 2: EPEVTQTPSHQVTQMGQEVILRCVPISNHLYFYWYRQILGQKVEFLVSFYNNEISEKSEIFDDQFSVERPDGSNFTLKIRSTKLEDSAMYFCAMTGRSNYEQYFGPGTRLTVTE	23.4	16.7
TCR 51 (codon-optimized, cysteine-modified) (TCR, V domains shown) V domain 1: QKEVEQNSGPLSVPEGAIASLNCTYSDRGSQSFFWYRQYSGKSPELIMSIYSNGDKEDGRFTAQLNKASQYVSLLIRDSQPSDSATYLCAVNMRGGGSNYKLTFGKGTLLTVNP V domain 2: EPEVTQTPSHQVTQMGQEVILRCVPISNHLYFYWYRQILGQKVEFLVSFYNNEISEKSEIFDDQFSVERPDGSNFTLKIRSTKLEDSAMYFCAIASRVSYEQYFGPGTRLTVTE	5.7	2.06
TCR 47 (codon-optimized, cysteine-modified) (TCR, V domains shown) V domain 1: QKEVEQNSGPLSVPEGAIASLNCTYSDRGSQSFFWYRQYSGKSPELIMFIYSNGDKEDGRFTAQLNKASQYVSLLIRDSQPSDSATYLCAVNLLSGSARQLTFGSGTQLTVLP V domain 2: EPEVTQTPSHQVTQMGQEVILRCVPISNHLYFYWYRQILGQKVEFLVSFYNNEISEKSEIFDDQFSVERPDGSNFTLKIRSTKLEDSAMYFCAMTGRTTYEQYFGPGTRLTVTE	1.98	0.71
TCR 48 (codon-optimized, cysteine-modified) (TCR, V domains shown) V domain 1: QKEVEQDPGPLSVPEGAIVSLNCTYSNSAFQYFMWYRQYSRKGPELLMYTYSSGNKEDGRFTAQVDKSSKYISLFIRDSQPSDSATYLCAMRIQGAQKLVFGQGTRLTINP V domain 2: EPEVTQTPSHQVTQMGQEVILRCVPISNHLYFYWYRQILGQKVEFLVSFYNNEISEKSEIFDDQFSVERPDGSNFTLKIRSTKLEDSAMYFCASTGRVSYEQYFGPGTRLTVTE	5.36	1.29
TCR 33 (codon-optimized, cysteine-modified) (TCR, V domains shown) V domain 1: QKEVEQNSGPLSVPEGAIASLNCTYSDRGSQSFFWYRQYSGKSPELIMFIYSNGDKEDGRFTAQLNKASQYVSLLIRDSQPSDSATYLCAVNAHHTGGFKTIFGAGTRLFVKA V domain 2: EPEVTQTPSHQVTQMGQEVILRCVPISNHLYFYWYRQILGQKVEFLVSFYNNEISEKSEIFDDQFSVERPDGSNFTLKIRSTKLEDSAMYFCASTPRDTYEQYFGPGTRLTVTE	22.6	14
TCR 49 (codon-optimized, cysteine-modified) (TCR, V domains shown) V domain 1: QKEVEQNSGPLSVPEGAIASLNCTYSDRGSQSFFWYRQYSGKSPELIMFIYSNGDKEDGRFTAQLNKASQYVSLLIRDSQPSDSATYLCAVNIGTSGTYKYIFGTGTRLKVLA V domain 2: EPEVTQTPSHQVTQMGQEVILRCVPISNHLYFYWYRQILGQKVEFLVSFYNNEISEKSEIFDDQFSVERPDGSNFTLKIRSTKLEDSAMYFCASTPRYSYEQYFGPGTRLTVTE	5.54	3.06
TCR 42 (codon-optimized, cysteine-modified) (TCR, V domains shown) V domain 1: GQQVMQIPQYQHVQEGEDFTTYCNSSTTLSNIQWYKQRPGGHPVFLIQLVKSGEVKKQKRLTFQFGEAKKNSSLHITATQTTDVGTYFCAGPDNFNKFYFGSGTKLNVKP V domain 2: EPEVTQTPSHQVTQMGQEVILRCVPISNHLYFYWYRQILGQKVEFLVSFYNNEISEKSEIFDDQFSVERPDGSNFTLKIRSTKLEDSAMYFCAKTSRSSYEQYFGPGTRLTVTE	1.21	1.65
TCR 41 (codon-optimized, cysteine-modified) (TCR, V domains shown) V domain 1: RKEVEQDPGPFNVPEGATVAFNCTYSNSASQSFFWYRQDCRKEPKLLMSVYSSGNEDGRFTAQLNRASQYISLLIRDSKLSDSATYLCVVTFALTGGFKTIFGAGTRLFVKA V domain 2: EPEVTQTPSHQVTQMGQEVILRCVPISNHLYFYWYRQILGQKVEFLVSFYNNEISEKSEIFDDQFSVERPDGSNFTLKIRSTKLEDSAMYFCASNPRDRVSYEQYFGPGTRLTVTE	6.07	2.41
TCR 46 (codon-optimized, cysteine-modified) (TCR, V domains shown) V domain 1: AQSVTQLDSQVPVFEEAPVELRCNYSSSVSVYLFWYVQYPNQGLQLLLKYLSGSTLVKGINGFEAEFNKSQTSFHLRKPSVHISDTAEYFCAVSPSSGTYKYIFGTGTRLKVLA V domain 2: GAGVSQTPSNKVTEKGKYVELRCDPISGHTALYWYRQSLGQGPEFLIYFQGTGAADDSGLPNDRFFAVRPEGSVSTLKIQRTERGDSAVYLCASSLYLGGSETQYFGPGTRLLVLE	1.27	1.21
TCR 45 (codon-optimized, cysteine-modified) (TCR, V domains shown) V domain 1: GQQVMQIPQYQHVQEGEDFTTYCNSSTTLSNIQWYKQRPGGHPVFLIQLVKSGEVKKQKRLTFQFGEAKKNSSLHITATQTTDVGTYFCAGSSGAGSYQLTFGKGTKLSVIP V domain 2: GAGVSQSPSNKVTEKGKDVELRCDPISGHTALYWYRQRLGQGLEFLIYFQGNSAPDKSGLPSDRFSAERTGESVSTLTIQRTQQEDSAVYLCASSLYLGTTGELFFGEGSRLTVLE	22.4	16.9
TCR 44 (codon-optimized, cysteine-modified) (TCR, V domains shown) V domain 1: GQNIDQPTEMTATEGAIVQINCTYQTSGFNGLFWYQQHAGEAPTFLSYNVLDGLEEKGRFSSFLSRSKGYSYLLLKELQMKDSASYLCAQYSGGYQKVTFGTGTKLQVIP V domain 2: DSGVTQTPKHLITATGQRVTLRCSPRSGDLSVYWYQQSLDQGLQFLIQYYNGEERAKGNILERFSAQQFPDLHSELNLSSLELGDSALYFCASSGTPDTQYFGPGTRLTVLE	2.96	1.43
TCR 39 (codon-optimized, cysteine-modified) (TCR, V domains shown) V domain 1: GQQLNQSPQSMFIQEGEDVSMNCTSSSIFNTWLWYKQEPGEGPVLLIALYKAGELTSNGRLTAQFGITRKDSFLNISASIPSDVGIYFCAGYSSSNDYKLSFGAGTTVTVRA V domain 2: EPEVTQTPSHQVTQMGQEVILRCVPISNHLYFYWYRQILGQKVEFLVSFYNNEISEKSEIFDDQFSVERPDGSNFTLKIRSTKLEDSAMYFCASTPRDRGKEAFFGQGTRLTVVE	12.3	2.61
TCR 53 (codon-optimized, cysteine-modified) (TCR, V domains shown) V domain 1: AQSVAQPEDQVNVAEGNPLTVKCTYSVSGNPYLFWYVQYPNRGLQFLLKYITGDNLVKGSYGFEAEFNKSQTSFHLKKPSALVSDSALYFCAVRDFGSGTYKYIFG V domain 2: GAGVSQSPRYKVTKRGQDVALRCDPISGHVSLYWYRQALGQGPEFLTYFNYEAQQDKSGLPNDRFSAERPEGSISTLTIQRTEQRDSAMYRCASSGSGTSGYNEQFFGPGTRLTVLE	3.35	0.43
TCR 50 (codon-optimized, cysteine-modified) (TCR, V domains shown) V domain 1: GEDVEQSLFLSVREGDSSVINCTYTDSSSTYLYWYKQEPGAGLQLLTYIFSNMDMKQDQRLTVLLNKKDKHLSLRIADTQTGDSAIYFCAESPPGTYKYIFGTGTRLKVLA V domain 2: DSGVTQTPKHLITATGQRVTLRCSPRSGDLSVYWYQQSLDQGLQFLIHYYNGEERAKGNILERFSAQQFPDLHSELNLSSLELGDSALYFCASSATRDAYGYTFGSGTRLTVVE	3.28	0.25
TCR 37 (codon-optimized, cysteine-modified) (TCR, V domains shown) V domain 1: ELKVEQNPLFLSMQEGKNYTIYCNYSTTSDRLYWYRQDPGKSLESLFVLLSNGAVKQEGRLMASLDTKARLSTLHITAAVHDLSATYFCAGYSGAGSYQLTFGKGTKLSVIP V domain 2: GAGVSQSPRYKVAKRGQDVALRCDPISGHVSLFWYQQALGQGPEFLTYFQNEAQLDKSGLPSDRFFAERPEGSVSTLKIQRTQQEDSAVYLCASSLLLGAYGYTFGSGTRLTVVE	25.5	19.5
